{
  "source": "patent US20240254239A1",
  "about": "(LAEKNA THERAPEUTICS SHANGHAI, published 2024)",
  "test_in_all_cases": "direct ELISA on coated recombinant ECD (30 ng/well), HRP-conjugated secondary antibody, luminescence",
  "key": {"[1]": {"target": "T1, human PD-L1 ECD (human, UniProt Q9NZQ7 19-238)", "T1 construct": "extracellular domain; also called recombinant extracellular domain of PD-L1", "T1 sequence (Q9NZQ7 19-238)": "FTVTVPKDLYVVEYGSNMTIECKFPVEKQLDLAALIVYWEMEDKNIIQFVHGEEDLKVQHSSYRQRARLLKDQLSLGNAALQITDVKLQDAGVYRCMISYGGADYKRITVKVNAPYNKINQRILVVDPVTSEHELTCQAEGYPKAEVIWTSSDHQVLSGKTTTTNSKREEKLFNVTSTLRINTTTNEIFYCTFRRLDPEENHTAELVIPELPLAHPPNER", "procedure": "(§1) Briefly, recombinant extracellular domain of PDGFRb, FAPα, ULBP1, uPAR, IGF1R, SIRPA, PD-L1, ANTXR1, CD248, or GPC3 (30 ng/well) was coated on white optiplate™-384 well HB plate. After overnight coating, standard direct ELISA assay was performed. Luminescence signal was detected after using secondary antibody with HRP conjugated. Binding activity of each antibody was determined based on dose dependent binding curve."}, "[2]": {"target": "T2, human uPAR ECD (human, UniProt Q03405 23-305, limits assumed)", "T2 construct": "extracellular domain; also called recombinant extracellular domain of uPAR", "T2 sequence (Q03405 23-305 limits assumed)": "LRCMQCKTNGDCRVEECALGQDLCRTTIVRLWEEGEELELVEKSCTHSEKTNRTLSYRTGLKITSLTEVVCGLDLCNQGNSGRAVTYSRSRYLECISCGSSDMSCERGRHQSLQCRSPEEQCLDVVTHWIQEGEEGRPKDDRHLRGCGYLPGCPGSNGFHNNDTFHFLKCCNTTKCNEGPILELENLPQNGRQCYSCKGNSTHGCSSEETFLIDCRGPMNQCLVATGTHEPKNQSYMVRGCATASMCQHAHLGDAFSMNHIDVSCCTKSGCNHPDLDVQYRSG", "procedure": "as §1"}, "[3]": {"target": "T3, human CD248 ECD (human, UniProt Q9HCU0 18-687)", "T3 construct": "extracellular domain; also called recombinant extracellular domain of CD248", "T3 sequence (looked up)": "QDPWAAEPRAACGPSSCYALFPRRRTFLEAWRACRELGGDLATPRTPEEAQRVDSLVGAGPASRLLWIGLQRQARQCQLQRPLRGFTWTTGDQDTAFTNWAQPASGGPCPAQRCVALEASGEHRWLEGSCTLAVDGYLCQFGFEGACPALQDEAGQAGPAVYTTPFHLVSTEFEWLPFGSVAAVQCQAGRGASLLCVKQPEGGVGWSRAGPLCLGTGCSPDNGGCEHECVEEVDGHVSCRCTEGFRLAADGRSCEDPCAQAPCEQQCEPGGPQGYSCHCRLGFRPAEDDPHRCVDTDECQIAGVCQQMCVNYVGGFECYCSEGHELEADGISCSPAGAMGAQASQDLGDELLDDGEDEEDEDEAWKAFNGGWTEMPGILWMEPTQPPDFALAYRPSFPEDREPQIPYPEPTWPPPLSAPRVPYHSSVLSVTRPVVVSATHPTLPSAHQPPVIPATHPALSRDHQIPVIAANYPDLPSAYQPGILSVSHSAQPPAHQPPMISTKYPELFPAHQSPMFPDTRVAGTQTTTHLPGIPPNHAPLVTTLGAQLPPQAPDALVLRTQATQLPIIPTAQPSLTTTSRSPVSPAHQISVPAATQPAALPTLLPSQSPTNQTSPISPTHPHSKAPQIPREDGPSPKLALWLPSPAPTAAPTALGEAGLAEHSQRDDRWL", "procedure": "as §1"}, "[4]": {"target": "T4, human SIRPA ECD (human, UniProt P78324 31-373)", "T4 construct": "extracellular domain; also called recombinant extracellular domain of SIRPA", "T4 sequence (P78324 31-373)": "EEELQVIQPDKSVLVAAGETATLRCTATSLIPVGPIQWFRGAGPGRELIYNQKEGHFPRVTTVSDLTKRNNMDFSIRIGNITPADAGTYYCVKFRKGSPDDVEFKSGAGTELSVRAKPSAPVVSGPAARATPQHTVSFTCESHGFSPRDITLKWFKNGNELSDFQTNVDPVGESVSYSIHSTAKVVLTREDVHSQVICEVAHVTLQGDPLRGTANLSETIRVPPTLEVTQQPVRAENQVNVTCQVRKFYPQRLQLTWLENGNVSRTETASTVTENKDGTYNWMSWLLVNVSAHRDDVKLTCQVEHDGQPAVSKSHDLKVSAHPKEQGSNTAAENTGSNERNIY", "procedure": "as §1"}, "[5]": {"target": "T5, human ANTXR1 ECD (human, UniProt Q9H6X2 33-321)", "T5 construct": "extracellular domain; also called recombinant extracellular domain of ANTXR1", "T5 sequence (looked up)": "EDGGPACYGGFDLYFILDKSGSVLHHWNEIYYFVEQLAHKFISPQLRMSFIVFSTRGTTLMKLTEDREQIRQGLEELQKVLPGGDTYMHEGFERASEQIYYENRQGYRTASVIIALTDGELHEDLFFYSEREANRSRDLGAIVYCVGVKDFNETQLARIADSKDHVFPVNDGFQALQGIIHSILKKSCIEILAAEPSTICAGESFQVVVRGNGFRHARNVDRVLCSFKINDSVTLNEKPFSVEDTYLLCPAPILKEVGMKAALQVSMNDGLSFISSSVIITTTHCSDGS", "procedure": "as §1"}},
  "data": [
    {"binder": "α-PDL1 1 S239D/1332E (antibody, human IgG1, kappa, V domains shown, Humanized, hIgG1 isotype, with S239D/I332E; also called α-PDL1 1 S239D/I332E; exemplary anti-PDL1 antibody (α-PDL1 1)) VH: EVQLVQSGAEVKKPGATVKISCKVSGYTFTSYWMYWVRQARGQRLEWIGRIDPNSGSTKYNEKFKNRFTISRDNSKNTLYLQMNSLRAEDTAVYYCARDYRKGLYAMDYWGQGTTVTVSS VL: AIQLTQSPSSLSASVGDRVTITCKASQDVGTAVAWYLQKPGQSPQLLIYWASTRHTGVPSRFSGSGSGTDFTFTISSLEAEDAATYYCQQYNSYPLTFGQGTKVEIKR", "values": [
      {"measurement": "EC50 (read off the curve)", "setting": "[1]", "value": "~0.02", "unit": "µg/mL"}
    ]},
    {"binder": "α-uPAR 1 S239D/1332E (antibody, human IgG1, kappa, V domains shown, hIgG1 with S239D/I332E; also called α-uPAR 1 S239D/I332E; exemplary anti-uPAR antibody (α-uPAR 1)) VH: QVQLVESGGGVVQPGRSLRLSCAASGFTFSSYGMHWVRQAPGKGLEWVAVIWYDGSNKYYADSVKGRFTISRDNSKNTLYLQMNSLRAEDTAVYYCARDQHIVVVTAILDYWGQGTLVTVSS VL: not shown", "values": [
      {"measurement": "EC50 (read off the curve)", "setting": "[2]", "value": "~0.03", "unit": "µg/mL"}
    ]},
    {"binder": "α-CD248 2 mIgG2a S239D/1332E (antibody, V domains shown, mIgG2a with S239D/I332E; also called α-CD248 2 mIgG2a S239D/I332E; exemplary anti-CD248 antibody (α-CD248 2)) VH: QVQLQESGPGLVRPSQTLSLTCTASGYTFTDYVIHWVKQPPGRGLEWIGYINPYDDDTTYNQKFKGRVTMLVDTSSNTAYLRLSSVTAEDTAVYYCARRGNSYDGYFDYSMDYWGSGTPVTVSS VL: DIQMTQSPSSLSASVGDRVTITCRASQNVGTAVAWLQQTPGKAPKLLIYSASNRYTGVPSRFSGSGSGTDYTFTISSLQPEDIATYYCQQYTNYPMYTFGQGTKVQIKR", "values": [
      {"measurement": "EC50 (read off the curve)", "setting": "[3]", "value": "~0.01", "unit": "µg/mL"}
    ]},
    {"binder": "α-CD248 1 mIgG2a S239D/1332E (antibody, V domains shown, mIgG2a with S239D/I332E; also called α-CD248 1 mIgG2a S239D/I332E; exemplary anti-CD248 antibody (α-CD248 1)) VH: QVQLQESGPGLVAPSQSLSITCTVSGFSLTGYGVNWVRQPPEKGLEWLGMIWVDGSTDYNSALKSRLNISKDKSKSQVFLKMNSLQTDDTARYYCARGGYGAMDYWGQGTSVTVSS VL: DIQMNQSPSSLSASLGDTITITCHASQNINVWLTWYQQKPGNIPKLLIYKASNLHTGVPSRFSGSGSGTGFTLTISSLQPEDIATYYCQQGQSYPWTFGGGTKLEIKR", "values": [
      {"measurement": "EC50 (read off the curve)", "setting": "[3]", "value": "~0.04", "unit": "µg/mL"}
    ]},
    {"binder": "α-SIRPA 3 S239D/1332E (antibody, human IgG1, kappa, V domains shown, Chimeric: murine variable regions, hIgG1 constant region with S239D/I332E; also called α-SIRPA 3 S239D/I332E; exemplary anti-SIRPA antibody (α-SIRPA 3)) VH: EVQLQQSGAELVKPGASVKLSCTASGFNIKDSYMHWVKQRTEQGLEWIGRIDPEDGETKYAPKFQGKATITADTSSNTAYLQLTSLTSEDTAVYYCARRGFYWGQGTTLTVSS VL: QIVLTQSPAIMSASPGEKVTLTCSASSSVSSSYLYWYQQKPGSSPKLWIYSTSNLASGVPARFSGSGSGTSYSLTISSMEAEDAASYFCYQWSTHPYTFGGGTKLEIKR", "values": [
      {"measurement": "EC50 (read off the curve)", "setting": "[4]", "value": "~0.3", "unit": "nM"}
    ]},
    {"binder": "α-ANTXR1 1 mIgG2a S239D/1332E (antibody, V domains shown, mIgG2a with S239D/I332E; also called α-ANTXR1 1 mIgG2a S239D/I332E; exemplary anti-ANTXR1 antibody (α-ANTXR1 1)) VH: QVQLVQSGAEVKKPGTSVKVSCKVPGYTFSSYAISWVRQAPGQGLEWMGGIIPIFGTTNYAQKFQGRVTITGEESTSTVYMELSSLRSEDTAVYYCARDTDYMFDYWGQGTLVTVSS VL: SSELTQDPVVSVALGETVSITCQGDNLRDFYASWYQQKPGQAPLLVMYGKNRRPSGIPDRFSGSTSGNTLSLTITGAQAEDEADYYCSSRDNSKHVVFGGGTKVTVLG", "values": [
      {"measurement": "EC50 (read off the curve)", "setting": "[5]", "value": "~0.01", "unit": "µg/mL"}
    ]}
  ]
}
